Target: MalK, ATPase subunit of the maltose transporter (E. coli, UniProt P68187 1-371)
Test: crystal structure

Chain of MalK, ATPase subunit of the maltose transporter (P68187 whole entry): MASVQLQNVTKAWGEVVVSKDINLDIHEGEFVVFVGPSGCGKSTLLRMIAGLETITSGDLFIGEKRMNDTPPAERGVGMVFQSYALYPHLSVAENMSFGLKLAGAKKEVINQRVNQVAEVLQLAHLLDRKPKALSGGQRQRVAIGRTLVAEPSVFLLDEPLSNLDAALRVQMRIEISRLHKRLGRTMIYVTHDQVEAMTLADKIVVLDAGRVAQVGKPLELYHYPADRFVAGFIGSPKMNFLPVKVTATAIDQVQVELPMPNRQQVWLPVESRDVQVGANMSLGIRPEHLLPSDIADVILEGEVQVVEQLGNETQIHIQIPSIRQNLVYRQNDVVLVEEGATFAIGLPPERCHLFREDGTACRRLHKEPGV

binding result: binds
B1: glucose-specific enzyme IIA (EIIA^Glc), full-length (natural protein, E. coli, UniProt P69783 1-169, looked up)
chain: MGLFDKLKSLVSDDKKDTGTIEIIAPLSGEIVNIEDVPDVVFAEKIVGDGIAIKPTGNKMVAPVDGTIGKIFETNHAFSIESDSGVELFVHFGIDTVELKGEGFKRIAEEGQRVKVGDTVIEFDLPLLEEKAKSTLTPVVISNMDEIKELIKLSGSVTVGETPVIRIKK

From paper PMC3875231 (Nature, 2013)
